Among the data in article PMC10397247 are interaction score values, retold here.

What all share (experiment): two-hybrid library CCNG1;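 also: natural log of median RNA to DNA barcode read ratio; higher means stronger binding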
In one experiment the target is T1, 4H48-bA.
T1 chain: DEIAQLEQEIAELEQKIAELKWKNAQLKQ

The next experiment has as its target T2, 4H491-bA.
T2 chain: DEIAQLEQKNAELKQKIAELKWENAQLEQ

The next experiment addresses T3, 4H2618-bH.
T3 chain: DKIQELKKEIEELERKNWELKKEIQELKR

The target in a further experiment is T4, 4H2667-bH.
T4 chain: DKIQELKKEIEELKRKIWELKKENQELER

The next experiment addresses T5, 4H2729-bH.
T5 chain: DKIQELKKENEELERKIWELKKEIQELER

The target of the next experiment is T6, 4H3112-bH.
T6 chain: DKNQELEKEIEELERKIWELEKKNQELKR

The target in another experiment is T7, 4H3185-bH.
T7 chain: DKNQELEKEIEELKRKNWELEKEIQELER

A further experiment concerns the target T8, 4H331-bH.
T8 chain: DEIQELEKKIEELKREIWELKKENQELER

The target of the next experiment is T9, 4H3354-bH.
T9 chain: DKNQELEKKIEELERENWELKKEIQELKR

The target in a further experiment is T10, 4H338-bH.
T10 chain: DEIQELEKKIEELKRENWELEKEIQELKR

Another experiment has as its target T11, 4H3427-bH.
T11 chain: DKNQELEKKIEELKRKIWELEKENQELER

Another experiment addresses T12, 4H3782-bH.
T12 chain: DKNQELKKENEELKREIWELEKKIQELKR

The target in another experiment is T13, 4H3855-bH.
T13 chain: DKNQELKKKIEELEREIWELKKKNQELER

A further experiment addresses T14, 4H4001-bH.
T14 chain: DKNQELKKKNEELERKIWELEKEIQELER

A further experiment has as its target T15, 4H454-bH.
T15 chain: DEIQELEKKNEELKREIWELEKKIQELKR

The target of the next experiment is T16, 4H48-bN.
T16 chain: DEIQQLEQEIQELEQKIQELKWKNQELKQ

The target of the next experiment is T17, 4H568-bH.
T17 chain: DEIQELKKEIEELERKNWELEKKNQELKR

For the next experiment, the target named is T18, 4H607-bH.
T18 chain: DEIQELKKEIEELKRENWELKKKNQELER

Another experiment deals with T19, 4H687-bH.
T19 chain: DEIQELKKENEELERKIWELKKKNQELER

The target of another experiment is T20, 4H717-bH.
T20 chain: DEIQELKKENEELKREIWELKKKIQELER

The target of another experiment is T21, 4H72-bH.
T21 chain: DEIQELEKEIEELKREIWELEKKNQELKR

The target of a further experiment is T22, 4H754-bH.
T22 chain: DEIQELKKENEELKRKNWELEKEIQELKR

In another experiment the target is T23, 4H797-bH.
T23 chain: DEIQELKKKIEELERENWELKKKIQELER

The next experiment concerns the target T24, 4H883-bH.
T24 chain: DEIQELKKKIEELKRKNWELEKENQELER

The next experiment addresses T25, 4H908-bH.
T25 chain: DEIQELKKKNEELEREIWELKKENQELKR

The target of a further experiment is T26, 4H918-bH.
T26 chain: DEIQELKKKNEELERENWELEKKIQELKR

A further experiment addresses T27, 4H953-bH.
T27 chain: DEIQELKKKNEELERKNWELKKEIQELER

For a further experiment, the target named is T28, 4H967-bH.
T28 chain: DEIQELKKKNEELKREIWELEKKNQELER

A further experiment deals with T29, 4H1804-bH.
T29 chain: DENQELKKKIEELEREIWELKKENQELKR

A further experiment has as its target T30, 4H1985-bH.
T30 chain: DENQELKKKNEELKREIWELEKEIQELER

For a further experiment, the target named is T31, 4H3129-bH.
T31 chain: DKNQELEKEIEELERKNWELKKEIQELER

The target of the next experiment is T32, 4H3172-bH.
T32 chain: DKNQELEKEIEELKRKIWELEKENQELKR

For another experiment, the target named is T33, 4H3414-bH.
T33 chain: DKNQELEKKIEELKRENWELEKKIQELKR

The target of the next experiment is T34, 4H3631-bH.
T34 chain: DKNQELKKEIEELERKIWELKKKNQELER

Another experiment has as its target T35, 4H3638-bH.
T35 chain: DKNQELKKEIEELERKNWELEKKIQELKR

For a further experiment, the target named is T36, 4H3817-bH.
T36 chain: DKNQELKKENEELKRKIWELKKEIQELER

Another experiment concerns the target T37, 4H3974-bH.
T37 chain: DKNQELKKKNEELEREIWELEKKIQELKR

The target of another experiment is T38, 4H570-bH.
T38 chain: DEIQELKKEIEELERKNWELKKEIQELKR

The target in a further experiment is T39, 4H584-bH.
T39 chain: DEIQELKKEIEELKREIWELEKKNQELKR

Another experiment concerns the target T40, 4H619-bH.
T40 chain: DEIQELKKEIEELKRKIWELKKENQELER

A further experiment deals with T41, 4H850-bH.
T41 chain: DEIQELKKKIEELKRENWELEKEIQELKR

In another experiment the target is T42, 4H906-bH.
T42 chain: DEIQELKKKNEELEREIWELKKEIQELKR

Another experiment has as its target T43, 4H462-bH.
T43 chain: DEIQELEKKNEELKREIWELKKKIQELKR

The next experiment concerns the target T44, 4H932-bH.
T44 chain: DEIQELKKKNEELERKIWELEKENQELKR

In another experiment the target is T45, P4A-bP.
T45 chain: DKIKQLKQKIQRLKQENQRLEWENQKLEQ

A further experiment deals with T46, 4H496-bH.
T46 chain: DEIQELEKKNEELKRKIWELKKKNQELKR

Another experiment has as its target T47, P5A-bP.
T47 chain: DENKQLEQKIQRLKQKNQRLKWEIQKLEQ

The next experiment deals with T48, P6A-bP.
T48 chain: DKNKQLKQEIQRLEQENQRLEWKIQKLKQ

A further experiment has as its target T49, P7A-bP.
T49 chain: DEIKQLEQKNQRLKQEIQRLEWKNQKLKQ

The next experiment has as its target T50, P8A-bP.
T50 chain: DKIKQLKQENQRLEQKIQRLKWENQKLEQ

The next experiment concerns the target T51, P9A-bP.
T51 chain: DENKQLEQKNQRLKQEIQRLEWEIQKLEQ

On to DEIAQLEQEIAELEQKIAELKWKNAQLKQ [4H48-bA], for which the interaction score with 4H48-bA turned out to be 1.25; with 4H491-bA, 1.09.
On to DKIQELKKEIEELERKNWELKKEIQELKR [4H2618-bH], for which the interaction score was 1.05 with 4H2618-bH; 0.678 in the experiment with 4H2667-bH; 2 in the experiment with 4H2729-bH; -0.148 in the experiment with 4H3112-bH; 1.08 with 4H3185-bH; 1.85 with 4H331-bH. For the same molecule, the interaction score with 4H3354-bH was 0.422; with 4H338-bH, 1.42; in the experiment with 4H3427-bH it was 1.07; in the experiment with 4H3782-bH it was -0.244; in the experiment with 4H3855-bH, -0.442; with 4H4001-bH it was 0.338. Further, the interaction score with 4H454-bH was 1.16; in the experiment with 4H48-bN, 1.54; with 4H568-bH, -0.291; with 4H607-bH, -1.63; in the experiment with 4H687-bH it was 0.466; in the experiment with 4H717-bH it was -0.283. Also, the interaction score with 4H72-bH was -0.76; in the experiment with 4H754-bH it was -0.696; in the experiment with 4H797-bH, 0.872; in the experiment with 4H883-bH, 0.271; in the experiment with 4H908-bH it was -1.01; with 4H918-bH it was 0.911. Besides, the figures for the interaction score in the experiment with 4H953-bH and with 4H967-bH were 0.869 and -0.781, respectively.
With DENQELKKKIEELEREIWELKKENQELKR [4H1804-bH], the interaction score in the experiment with 4H1804-bH is 0.525; with 4H1985-bH, 0.0377; with 4H3129-bH, -0.437; with 4H3172-bH, -0.154; in the experiment with 4H3414-bH, -0.0322; with 4H3631-bH, -0.276. The interaction score with 4H3638-bH was -0.512; in the experiment with 4H3817-bH, -0.0504; in the experiment with 4H3974-bH, -0.359; in the experiment with 4H570-bH, -0.192; with 4H584-bH it was 0.198; with 4H619-bH it was -0.693. Further, the interaction score with 4H850-bH was -0.238; with 4H906-bH, -0.842.
On to DKNQELKKKNEELERKIWELEKEIQELER [4H4001-bH], for which the interaction score is -0.117 with 4H4001-bH; 1.29 with 4H454-bH; -0.256 with 4H462-bH; -0.215 in the experiment with 4H568-bH; -2.7 with 4H607-bH; -0.869 with 4H687-bH. In addition, the interaction score with 4H717-bH was -0.479; with 4H72-bH, -2.05; in the experiment with 4H754-bH, -0.348; with 4H797-bH, -0.61; with 4H883-bH, -1.67; in the experiment with 4H908-bH, -0.558. The interaction score with 4H918-bH was -2.1; in the experiment with 4H932-bH, 0.0317; with 4H953-bH, -1.36; in the experiment with 4H967-bH, -2.28; with P4A-bP, 0.398.
Take DEIQELEKKNEELKRKIWELKKKNQELKR [4H496-bH]: the interaction score in the experiment with 4H496-bH was -0.197.
Turning to DKIKQLKQKIQRLKQENQRLEWENQKLEQ [P4A-bP], the interaction score with P4A-bP is -1.09; with P5A-bP, -1.59; with P6A-bP, -0.773; with P7A-bP, -1.51; in the experiment with P8A-bP, -0.918; with P9A-bP, -0.489.
